Test system: MS2 coat protein
Assay: apparent KD of MS2 coat protein; designed switch direction (-1 OFF switch, 1 ON switch): -1; higher = weaker reporter binding
Procedure, shortened: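 Designed RNA switches sharing common flanks were transcribed on Illumina chips by stalled E. coli RNA polymerase. They were titrated with SNAP-549-labelled MS2 coat protein, from 0.7 or 1.5 nM doubling to 3 µM, in Tris-HCl pH 7.5 buffer with KCl, MgCl2, BSA, DTT, tRNA and Tween-20. Titrations ran without input, with 200 uM small-molecule ligand, or with an oligonucleotide input. The apparent KD of each design is the median over its clusters, after curve-fitting of normalised cluster fluorescence.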

[1] = input ligand: microRNA oligo, concentration not stated
[2] = Eterna round: R95, input ligand: FMN 200 uM
[3] = Eterna round: R95, input ligand: microRNA oligo, concentration not stated
[4] = Eterna round: R95, input ligand: none

Sequence | apparent KD of MS2 coat protein (input ligand: FMN 200 uM) [nM] | apparent KD of MS2 coat protein [1] [nM] | apparent KD of MS2 coat protein (input ligand: none) [nM] | apparent KD of MS2 coat protein [2] [nM] | apparent KD of MS2 coat protein [3] [nM] | apparent KD of MS2 coat protein [4] [nM]
AGCUGUGGCCGAGGAUAUGACAUGAGGAUCACCCAUGUACAUAAUUAGGCCUGGUAACAGGCUCUUCAGAAGGCGGUCUCAGCA [Eli eng2 - 006] (Eterna round: R96, puzzle: Exclusion NG 2) | 7.27 | 6.45 | 11.8 |  |  | 
AGCUGUGGCCGAGGAUAUGACAUGAGGAUCACCCAUGUACGUAAUUAGGCCUGGUAACAGGCUCGUCAGAAGGCGGUCUCAGCA [Eli eng2 - 008] (Eterna round: R96, puzzle: Exclusion NG 2) | 12.2 | 7.43 | 15.3 |  |  | 
AGCUGUGGCCGAGGAUAUUACGAACCAUGGAAAACCAUGGAAACUCUACAUGAGGAUCACCCAUGUAAGAAGGCGGUCUCAGCA [Eli eng2 - 024] (Eterna round: R96, puzzle: Exclusion NG 2) | 47.5 | 11.7 | 16.4 |  |  | 
AGCUUUUUGUUUUUGGGUGACAUGAGGAUCACCCAUGUCUUAUGGGCCCAGUAGUAGUAAGAUAGAAGGGACCCACG [-20.8, -41.27, a 31%] (Eterna round: R97, puzzle: Sensor, turn-off variant 1) | 639 |  | 731 |  |  | 
AGGAGUAGUAAGGAUAUAGCGGACUAGUCGUCGUUAGAAGGUACUACAUGAGGAUCACCCAUGUUGACCUGAGC [EX6 B.14] (Eterna round: R97, puzzle: Exclusion 6) | 46.5 |  | 19.6 |  |  | 
AGGAGUGAAGGAUAUACAUGAGGAUCACCCAUGUGGGAGGAAAGAGGUGAUGGAGAUAGUAGAAGGUCAGGAUG [JR_Exclusion3_Sub005] (puzzle: Exclusion 3) |  |  |  | 99.9 | 93.9 | 116
AGGCUGUCAGGAUAUCUGCGCCGUGGUGCGCGGCGUUAUAAAGAGAAGGGACAUGAGGAUCACCCAUGUCCUCA [EX4 B.25] (Eterna round: R97, puzzle: Exclusion 4) | 79.7 |  | 19.4 |  |  | 
AGGGAACAUGAGGAUCACCCAUGUGAGGAUAUACAAAAGAAAAGAAAAGAAAGAAGAAGUAGAAGGUACAAGAA [Neferka] (Eterna round: R96, puzzle: Exclusion 1) | 32.4 | 26.9 | 32.8 |  |  | 
AGGGAACCCAAGGAUAUUGAGAGUUAAGCCACUUAAGAAGGUGGUACAUGAGGAUCACCCAUGUCCCUUGCAGA [Eternabot (L1) Solution 6] (Eterna round: R97, puzzle: Exclusion 6) | 38.3 |  | 41.6 |  |  | 
AGGUAACAUGAGGAUCACCCAUGUCAGGAUAUCAGGAAGAUUAGAAUAGAGUAGAGGAUGAGAAGGGACUAUAU [Excluse me! 18- Jieux - Exclusion 1] (Eterna round: R96, puzzle: Exclusion 1) |  | 24.7 |  |  |  | 
AGGUAACAUGAGGAUCACCCAUGUCAGGAUAUCAGGAAGAUUAGAAUAGAGUAGAGGAUGAGAAGGGACUAUAU [Excluse me! 18- Jieux - Exclusion 1] (puzzle: Exclusion 1) |  |  |  | 31 | 31.7 | 43.1
AGGUCACAUGAGGAUCACCCAUGUCAGGAUAUCUACAUUGAAGCCUCGGCUUCAAUGUAGAGAAGGGAUAAUUA [E1/8-B2] (Eterna round: R97, puzzle: Exclusion 1) | 63.7 |  | 44.7 |  |  | 
AGGUCACAUGAGGAUCACCCAUGUCAGGAUAUCUACAUUGAAGCUUCGGCUUCAAUGUAGAGAAGGGACAAUUA [E1/6-B1] (Eterna round: R97, puzzle: Exclusion 1) | 341 |  | 75.7 |  |  | 
AGGUCCUUCUGGACACAUGAGGAUCACCCAUGUGAGGUCAGCGAGGAUAUCGGUCAAUAAUGUGACGAGAAGGCGCGGACCGAU [Ex NG3 #58] (Eterna round: R96, puzzle: Exclusion NG 3) | 31.6 | 14.8 | 19.1 |  |  | 
AGGUCCUUCUGGAGACAUGAGGAUCACCCAUGUCGAGUCAGCGAGGAUAUCGGUUAAUAAUGUGACGAGAAGGCGCGGACCGAU [Ex NG3 #55] (Eterna round: R96, puzzle: Exclusion NG 3) | 45.1 | 9.82 | 13 |  |  | 
AGGUGACAUGAGGAUCACCCAUGUGAGGAUAUCUGGAUACUCUUUAUUUUAGAUAUCCAGAGAAGGCACACCCU [Ex1-3: 8Z] (puzzle: Exclusion 1) |  |  |  |  | 235 | 
AGGUGCUUCUGGAGACAUGAGGAUCACCCAUGUCGAGUCAGCGAGGAUAUCGGUAAGACAUGUGAUGAGAAGGCGCAGACCGAU [Ex NG3 #52] (Eterna round: R96, puzzle: Exclusion NG 3) | 48.6 | 22.6 | 30.8 |  |  | 
